The values below come from patent publication US6353153B1, “Enhanced transport with a plastid membrane transport protein” (priority 1996, dated 2002).

The subject of assay [1] is β-lactamase transport in E. coli JM109(DE3). Description: Ampicillin resistance, ability to form colonies on LB-agar plates with increasing ampicillin. The assay is classed as cell-based, Escherichia coli. To be noted: solid agar media with increasing ampicillin. From the text: The enhancement of protein translocation was further investigated using the plasmid-borne multicopy gene, β-lactamase. See Example 14. β-lactamase protein levels are much higher than induced alkaline phosphatase making this system a more sensitive monitor of protein translocation without the complications posed by low phosphate induction. Like alkaline phosphatase, β-lactamase is translocated into the periplasm, where it detoxifies the antibiotic ampicillin, thereby conferring ampicillin-resistance to cells. Because the level of antibiotic resistance conferred also reflects the level of protein transport activity, the level of ampicillin resistance was determined for Bce44B expressing cells and compared to that of Oee1-Dhfr-expressing cells on solid agar media containing increasing concentrations of ampicillin. […] The Bce44B-expressing cells formed colonies with ampicillin concentrations as high as 3 mg/ml, whereas Oee1-Dhfr-expressing cells could not form colonies beyond 1 mg/ml.
Changes to β-lactamase transport were monitored by two different approaches: 1) the ability to form colonies on solid LB-agar plates containing increasing concentrations of ampicillin (50 μg/ml to 3.0 mg/ml); and 2) the level of transported and processed β-lactamase detected by immunoblotting total protein samples of cells grown in LB-broth containing increasing ampicillin concentrations. […]

In assay [2] the test system is β-lactamase transport in E. coli MM52 (secAts). Description: Ampicillin resistance, colony formation in temperature-sensitive secA mutant strain MM52. In kind it is cell-based, Escherichia coli. As to conditions: 30° C. permissive temperature. An excerpt: The effects of Bce44B on β-lactamase transport were further tested in a temperature-sensitive secA (secAts) mutant bacterial strain (MM52, a gift from Dr. Jon Beckwith, Harvard Medical School, Boston Mass.) to provide further evidence that the expressed Bce44B component affected protein translocation in bacteria and that the protein transport enhancement was not due solely to the upregulation of the existing bacterial transport machinery such as SecA. See Example 17. The defective protein translocation phenotype in MM52 appears primarily when cells are subjected to temperatures above 30° C. Protein translocation slows down and comes to a halt upon shifting to temperatures above 30° C. […] Effects on protein transport can then be monitored in this strain by tracking the β-lactamase profiles at permissive and non-permissive temperatures.
The same Bce44B gene construct and control Oee1-Dhfr plasmid were introduced into MM52 and its wild type counterpart strain MC4100 (containing the wild-type SecA) via electroporation. The role of Bce44B in protein translocation was assessed as before using three different criteria: 1) the level of antibiotic resistance conferred; 2) the profile of transported versus precursor β-lactamase at permissive and non-permissive temperatures; and 3) the level of sensitivity of protein transport to sodium azide. […]

Bounds are passed on as bounds.

B1: Bce44B: plastid transport protein, Brassica napus 44 kDa chloroplast envelope protein, member of Com44/Cim44, encoded by SEQ ID NO:1 (protein)
chain: MQTAMKTMMNQMNTQNSQFNNPGFPTGAGAGAGSPFPFPFPPQTSPTTSPFQPQSQSSGATVDLTATKVDRPPVSKPQPTPIPPTKSIEVYKPSVVVEENKAMKEEKNYAFEDVSPEETTKESPFSNYEEVSETSAPKETRLFDDVLQNGAAPANGATASDVFQSLGAGKGWAGGSVEVLEKMIEYPTFQKMLYPHLPEEMRNPESFKWVRKNPQYRQQLQDMLNNMSESGEWDKRMTETLKNFDPNSPEVKQGFDQLGLTPEEVISKIMENPDVSMAFQNPRVEAALMDCSENPMNIMKYQNDKEVMDVFNKISQLFPGLTG
As for B1, the “ampicillin concentration up to which expressing cells form colonies” value was no more than 3 mg/mL in assay [1] and “up to 3 mg/ml” in assay [2].
